Test results from US20200254065A1, “LONG-ACTING GLP-2 ANALOGS” (OPKO Biologics Ltd., priority 2019, published 2020).
Square brackets hold non-standard residues; d marks the D form. Nle = CCCC[C@H](N)C(=O)O

B1: GLP-2 Variant #3 (peptide)
peptide: H-HGEGSFSDE[Nle][dH]TILDNLAARDFINWLIQTKITD-NH2
SMILES: CCCC[C@H](NC(=O)[C@H](CCC(=O)O)NC(=O)[C@H](CC(=O)O)NC(=O)[C@H](CO)NC(=O)[C@H](Cc1ccccc1)NC(=O)[C@H](CO)NC(=O)CNC(=O)[C@H](CCC(=O)O)NC(=O)CNC(=O)[C@@H](N)Cc1c[nH]cn1)C(=O)N[C@H](Cc1c[nH]cn1)C(=O)N[C@H](C(=O)N[C@H](C(=O)N[C@@H](CC(C)C)C(=O)N[C@@H](CC(=O)O)C(=O)N[C@@H](CC(N)=O)C(=O)N[C@@H](CC(C)C)C(=O)N[C@@H](C)C(=O)N[C@@H](C)C(=O)N[C@@H](CCCNC(=N)N)C(=O)N[C@@H](CC(=O)O)C(=O)N[C@@H](Cc1ccccc1)C(=O)N[C@H](C(=O)N[C@@H](CC(N)=O)C(=O)N[C@@H](Cc1c[nH]c2ccccc12)C(=O)N[C@@H](CC(C)C)C(=O)N[C@H](C(=O)N[C@@H](CCC(N)=O)C(=O)N[C@H](C(=O)N[C@@H](CCCCN)C(=O)N[C@H](C(=O)N[C@H](C(=O)N[C@@H](CC(=O)O)C(N)=O)[C@@H](C)O)[C@@H](C)CC)[C@@H](C)O)[C@@H](C)CC)[C@@H](C)CC)[C@@H](C)CC)[C@@H](C)O
B2: GLP-2 Variant #5 (peptide)
peptide: H-HGEGSFSDE[Nle]NTILDYLAARDFINWLIQTKITD-NH2
SMILES: CCCC[C@H](NC(=O)[C@H](CCC(=O)O)NC(=O)[C@H](CC(=O)O)NC(=O)[C@H](CO)NC(=O)[C@H](Cc1ccccc1)NC(=O)[C@H](CO)NC(=O)CNC(=O)[C@H](CCC(=O)O)NC(=O)CNC(=O)[C@@H](N)Cc1c[nH]cn1)C(=O)N[C@@H](CC(N)=O)C(=O)N[C@H](C(=O)N[C@H](C(=O)N[C@@H](CC(C)C)C(=O)N[C@@H](CC(=O)O)C(=O)N[C@@H](Cc1ccc(O)cc1)C(=O)N[C@@H](CC(C)C)C(=O)N[C@@H](C)C(=O)N[C@@H](C)C(=O)N[C@@H](CCCNC(=N)N)C(=O)N[C@@H](CC(=O)O)C(=O)N[C@@H](Cc1ccccc1)C(=O)N[C@H](C(=O)N[C@@H](CC(N)=O)C(=O)N[C@@H](Cc1c[nH]c2ccccc12)C(=O)N[C@@H](CC(C)C)C(=O)N[C@H](C(=O)N[C@@H](CCC(N)=O)C(=O)N[C@H](C(=O)N[C@@H](CCCCN)C(=O)N[C@H](C(=O)N[C@H](C(=O)N[C@@H](CC(=O)O)C(N)=O)[C@@H](C)O)[C@@H](C)CC)[C@@H](C)O)[C@@H](C)CC)[C@@H](C)CC)[C@@H](C)CC)[C@@H](C)O
B3: GLP-2 Variant #7 (peptide)
peptide: H-HGEGSFSDE[Nle]NTILDYLAARDFINWLIQTKITD-OH
SMILES: CCCC[C@H](NC(=O)[C@H](CCC(=O)O)NC(=O)[C@H](CC(=O)O)NC(=O)[C@H](CO)NC(=O)[C@H](Cc1ccccc1)NC(=O)[C@H](CO)NC(=O)CNC(=O)[C@H](CCC(=O)O)NC(=O)CNC(=O)[C@@H](N)Cc1c[nH]cn1)C(=O)N[C@@H](CC(N)=O)C(=O)N[C@H](C(=O)N[C@H](C(=O)N[C@@H](CC(C)C)C(=O)N[C@@H](CC(=O)O)C(=O)N[C@@H](Cc1ccc(O)cc1)C(=O)N[C@@H](CC(C)C)C(=O)N[C@@H](C)C(=O)N[C@@H](C)C(=O)N[C@@H](CCCNC(=N)N)C(=O)N[C@@H](CC(=O)O)C(=O)N[C@@H](Cc1ccccc1)C(=O)N[C@H](C(=O)N[C@@H](CC(N)=O)C(=O)N[C@@H](Cc1c[nH]c2ccccc12)C(=O)N[C@@H](CC(C)C)C(=O)N[C@H](C(=O)N[C@@H](CCC(N)=O)C(=O)N[C@H](C(=O)N[C@@H](CCCCN)C(=O)N[C@H](C(=O)N[C@H](C(=O)N[C@@H](CC(=O)O)C(=O)O)[C@@H](C)O)[C@@H](C)CC)[C@@H](C)O)[C@@H](C)CC)[C@@H](C)CC)[C@@H](C)CC)[C@@H](C)O

Target: T1, GLP-2 receptor (UniProt O95838 1-553, limits assumed)
T1 sequence (looked up): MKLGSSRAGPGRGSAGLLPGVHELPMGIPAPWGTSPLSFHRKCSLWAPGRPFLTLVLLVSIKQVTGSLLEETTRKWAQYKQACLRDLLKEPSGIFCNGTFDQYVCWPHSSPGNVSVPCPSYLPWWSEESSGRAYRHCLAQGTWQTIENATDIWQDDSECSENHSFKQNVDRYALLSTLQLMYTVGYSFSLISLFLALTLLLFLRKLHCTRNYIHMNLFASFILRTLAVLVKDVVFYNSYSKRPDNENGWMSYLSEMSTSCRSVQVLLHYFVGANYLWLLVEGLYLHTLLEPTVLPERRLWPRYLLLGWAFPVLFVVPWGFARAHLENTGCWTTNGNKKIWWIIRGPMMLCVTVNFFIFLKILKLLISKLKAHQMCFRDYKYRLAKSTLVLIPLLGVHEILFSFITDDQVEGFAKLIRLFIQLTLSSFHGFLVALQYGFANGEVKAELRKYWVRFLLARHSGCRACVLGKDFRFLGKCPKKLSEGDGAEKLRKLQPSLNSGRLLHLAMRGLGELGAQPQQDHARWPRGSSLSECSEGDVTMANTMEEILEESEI
Assay: cell-based or functional assay

Row | Binder | EC50 Ratio to Teduglutide, CBA [fold] | EC50 [nM], Cell Based Assay (CBA), cells overexpressing the GLP-2 receptor [nM]
1 | B1 | 2.5 | 14.2
2 | B2 | 2.4 | 13.6
3 | B3 | 3 | 17.2
